The Kd is the equilibrium constant for the complex coming apart. Low readings indicate higher affinity, high ones lower affinity. The IC50 is the concentration that inhibits the measured activity by half. A high value points to weaker potency in that assay.

Read-outs that look alike come from different tables or passages of the source.

Test [1] deals with Properdin peptide (71-110) …. Nature of the test: ELISA saturation binding. (In general: An ELISA detects its analyte on a solid surface through an enzyme-linked reagent.)
Test [2] addresses T1, human C3b (human, UniProt P01024 23-667; P01024 749-1663). Nature of the test: inhibition of properdin binding to C3b (ELISA).
The target of test [3] is T1, human C3b. Nature of the test: inhibition of properdin binding to C3b (ELISA). The source holds these as a separate data set.

Sequence of Properdin peptide (71-110) … (peptide, as listed by the source): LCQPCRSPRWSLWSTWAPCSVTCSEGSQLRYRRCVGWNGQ

B1: MoAb^71-110 (antibody, V domains shown)
VH: QVLLQQSAPELARPGASVKMSCTASGYIFTNYPIHWVKQRPGQGLEWIGFIDPGGGYDEPDERFRDRATLTADKSSSTAYMQLSSLTSEDSAIYYCARRGGGYYLDYWGQDTTLTVSA
VL: SIVMTQTPKFLLVSAGDRITITCKASQSVNNDVAWYQQKPGQSPKLLIYYASNRYTGVPDRFTGSGYGTDFTFTITTVKAEDLAVYFCQQDYSSPLTFGAGTKLELK
Consider B1, for which, in test [1], binding was characterised by a dissociation constant (Kd) of 161 nM. CRSPRWSLWS [Properdin peptide CRSPRWSLWS (75-84)] came in with an IC50 in test [2] of 322 µg/mL.

With RYRRCVGWNG [Properdin peptide RYRRCVGWNG (99-108)], the IC50 in test [3] came to 301 µg/mL.

These data come from US20110008340A1 (published 2011).
